Consider one protein from paper PMC6152936 (Cell reports, 2018).

This series concerns the molecule itself. The series can be described thus: SAXS.

B1: TFG N terminus (amino acids 1-138), wild type (domain or fragment, human, UniProt Q92734 1-138, looked up)
chain: MNGQLDLSGKLIIKAQLGEDIRRIPIHNEDITYDELVLMMQRVFRGKLLSNDEVTIKYKDEDGDLITIFDSSDLSFAIQCSRILKLTLFVNGQPRPLESSQVKYLRRELIELRNKVNRLLDSLEPPGEPGPSTNIPEN
As a reminder, the stoichiometry N is the number of molecules, sites or subunits per partner or assembly. B1: the “stoichiometry N” value came out at 8.
